Read-outs that look alike come from different tables or passages of the source.
Assays:
Assay in all cases: pull-down
[1] = biological target: SNAP tag–polyproline peptide fusion (…)
[2] = biological target: SH2 affinity peptide (EPQpYEEIPIYL)
[3] = biological target: SH2 affinity peptide (EPQpYEEIPIYL); remark: listed apart in the source

Question: Hck^Y527F (enzyme) was tested. Which percent of kinase retained by the immobilized SH3 domain ligand [1] did it give?
Answer: 38%

Question: What about the percent of total kinase retained on beads [1] of the same substance?
Answer: 2%

Question: How did the percent retained relative to Hck–1 [2] turn out when Hck (residues 84–531) (enzyme) was run?
Answer: 17%

Question: What about the percent retained relative to Hck–1 [3] of the same substance?
Answer: 2%
